The target in assay [1] is HEK293-hLAG3 and HEK293-mfLAG3 cells. Description: cell binding assay of Table 12, LAG3-expressing HEK293 cells against parental HEK293 cells.
Assay [2] has as its target cynomolgus LAG3 on activated CD4+ and CD8+ cynomolgus T cells (cynomolgus). The assay is described as follows: FACS, stimulated cynomolgus CD4+ T cells, donor 1. (In flow cytometry, cells or beads pass a laser one at a time.)

“H4H isotype control and the H4sH isotype control”: the ratio of binding above the HEK293 parental cells in assay [1] was 0.7 to 1.1 fold.
Consider hIgG4 isotype control (antibody), for which the Ratio of MFI (11 nM/0 nM) in assay [2] was 1.

The record behind these values is patent US20170101472A1.
